From PMC7790460, “An RNA Repair Operon Regulated by Damaged tRNAs”
Several values for one entry are separate records, joined by “and”; a condition that tells them apart may be missing. Equal values may be shown once.

Experiments:
[1] = target: RtcR transcriptional activator (full-length S. Typhimurium RtcR) (S. Typhimurium); test: SEC; RtcR (48 uM) mixed with 48 uM refolded 5' tRNA-Leu(UAG) halves ending in 2',3'-cyclic phosphate; Superdex 200 Increase 10/300; 20 mM Tris-HCl pH 7.5, 100 mM NaCl, 1 mM MgCl2, 2% glycerol, 0.5% Tween 20, 1 mM ATP; peaks analysed by SDS-PAGE and denaturing gels
[2] = target: T1, RtcR CARF domain (Salmonella enterica serovar Typhimurium …, UniProt Q8ZLH7 1-188); test: EMSA; 20 mM Tris-HCl pH 7.5, 50 mM NaCl, 1 mM MgCl2, 0.05% Tween 20; 1 mM ATP for RtcR; 30 min at 4 C then 30 min at room temperature; RNA 1 nM; settings: protein: recombinant; chain copies: 2; label: 5'-32P (EMSA)
T1 sequence: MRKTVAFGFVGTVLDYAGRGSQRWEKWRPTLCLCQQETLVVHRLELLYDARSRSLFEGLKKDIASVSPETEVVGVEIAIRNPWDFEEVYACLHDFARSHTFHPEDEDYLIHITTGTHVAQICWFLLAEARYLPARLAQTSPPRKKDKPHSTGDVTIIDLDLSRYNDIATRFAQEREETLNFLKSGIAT

[3] = target: T2, RtcR (full-length) (Salmonella enterica serovar Typhimurium …, UniProt Q8ZLH7 1-527); test: EMSA; 1 mM ATP; 20 mM Tris-HCl pH 7.5, 50 mM NaCl, 1 mM MgCl2, 0.05% Tween 20; 1 mM ATP for RtcR; 30 min at 4 C then 30 min at room temperature; RNA 1 nM; settings: protein: recombinant; chain copies: 2; label: 5'-32P (EMSA)
T2 sequence: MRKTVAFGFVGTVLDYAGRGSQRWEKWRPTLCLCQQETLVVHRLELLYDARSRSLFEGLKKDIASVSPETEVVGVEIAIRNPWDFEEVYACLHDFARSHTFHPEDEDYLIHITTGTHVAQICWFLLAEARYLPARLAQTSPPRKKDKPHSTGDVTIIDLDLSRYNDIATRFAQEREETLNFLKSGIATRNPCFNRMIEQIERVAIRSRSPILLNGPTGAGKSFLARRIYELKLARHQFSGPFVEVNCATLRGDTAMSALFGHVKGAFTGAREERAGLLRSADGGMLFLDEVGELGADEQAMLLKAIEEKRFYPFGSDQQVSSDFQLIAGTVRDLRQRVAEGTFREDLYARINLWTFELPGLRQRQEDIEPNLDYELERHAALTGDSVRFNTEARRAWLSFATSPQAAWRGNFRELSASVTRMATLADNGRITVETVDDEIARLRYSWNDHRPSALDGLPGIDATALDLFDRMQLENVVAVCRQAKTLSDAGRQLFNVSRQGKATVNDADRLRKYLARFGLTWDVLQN

With “RtcR transcriptional activator (full-length S. Typhimurium RtcR) (natural protein)” as the molecule, how does the stoichiometry N [1] read?
The stoichiometry N was 6 and 2.

How did the “apparent K (half saturation)” value [2] turn out when GCGGGAGUGGCGAAAUUGGUAGACGCACCAGAUUUAG (structured_RNA, 2',3'-cyclic phosphate 3' end) [tRNALeu(UAG) 5' half, after G of anticodon, cyclic phosphate] was run?
The value was about 200 nM.

What about the “apparent K (half saturation)” value [3] of the same molecule?
Its value is about 125 nM.

Does GCGGGAGUGGCGAAAUUGGUAGACGCACCAGAUUUAG (structured_RNA, 3'-phosphate) [tRNALeu(UAG) 5' half, after G of anticodon, 3'-phosphate] bind [2]?
Result: no binding
